Results reported in patent US20090209457A1, “TREATMENT OF ANTI-ERYTHROPOIETIN ANTIBODY-MEDIATED DISORDERS WITH SYNTHETIC PEPTIDE-BASED EPO RECEPTOR AGONISTS” (Affymax, Inc., priority 2008, published 2009).
Read-outs that look alike come from different tables or passages of the source. One block for each molecule: values may come before it. Bridge positions count the residues as written; N and C are the ends. Square brackets hold non-standard residues; d marks the D form. Ends that are not written are not given here. 1Nal = N[C@@H](Cc1cccc2ccccc12)C(=O)O; Sar = CNCC(=O)O

Assays:
[1] = tested on: human, bone marrow derived CD34+ cells; assay: C/BFU-e assay (erythroid colonies); type: cell-based; conditions: 14 days, 90% of maximum colonies relative to EPO control
Method: EPO-R signaling stimulates the differentiation of bone marrow stem cells into proliferating red blood cell precursors. This assay measures the ability of test peptides to stimulate the proliferation and differentiation of red blood cell precursors from primary human bone marrow pluripotent stem cells.
For this assay, serial dilutions of test peptide are made in IMDM medium (Gibco) supplemented with 10% FBS (Hyclone). These serial dilutions, or positive control EPO peptide, are then added to methylcellulose to give a final volume of 1.5 mL. The methylcellulose and peptide mixture is then vortexed thoroughly. Aliquots (100,000 cells/mL) of human, bone marrow derived CD34+ cells (Poietics/Cambrex) are thawed. The thawed cells are gently added to 0.1 mL of 1 mg/ml DNAse (Stem Cells) in a 50 mL tube. Next, 40-50 mL IMDM medium is added gently to cells: the medium is added drop by drop along the side of the 50 mL tube for the first 10 mL, and then the remaining volume of medium is slowly dispensed along the side of the tube. The cells are then spun at 900 rpm for 20 min, and the media removed carefully by gentle aspiration. The cells are resuspended in 1 ml of IMDM medium and the cell density per mL is counted on hemacytometer slide (10 μL aliquot of cell suspension on slide, and cell density is the average count×10,000 cells/ml). The cells are then diluted in IMDM medium to a cell density of 15,000 cells/mL. A 100 μL of diluted cells is then added to each 1.5 mL methyl cellulose plus peptide sample (final cell concentration in assay media is 1000 cells/mL), and the mixture is vortexed. Allow the bubbles in the mixture to disappear, and then aspirate 1 mL using blunt-end needle. Add 0.25 mL aspirated mixture from each sample into each of 4 wells of a 24-well plate (Falcon brand). Incubate the plated mixtures at 37° C. under 5% CO2 in a humid incubator for 14 days. Score for the presence of erythroid colonies using a phase microscope (5×-10× objective, final magnification of 100×). The concentration of test peptide at which the number of formed colonies is 90% of maximum, relative to that observed with the EPO positive control, is recorded as the EC90 [See Table 2: C/BFU-e EC90].
For this assay, serial dilutions of test peptide are made in IMDM medium (Gibco) supplemented with 10% FBS (Hyclone). These serial dilutions, or positive control EPO peptide, are then added to methylcellulose to give a final volume of 1.5mL. The methylcellulose and peptide mixture is then vortexed thoroughly. […] The cells are resuspended in 1 ml of IMDM medium and the cell density per mL is counted on hemacytometer slide (10 μL aliquot of cell suspension on slide, and cell density is the average count×10,000 cells/ml). […]

[2] = biological target: T1, recombinant EPO-R produced in Chinese Hamster Ovary cells as a fusion protein to a portion of the human … (human, UniProt P19235 25-250); assay: competitive binding; the column head says only 'IC50 (pM)', the text ties Table 2 to the AQ bead proximity assay with tracer SEQ ID NO: 4 as competitor
T1 construct: In the assay it was held on protein A acceptor beads through antibody ab179
T1 sequence (looked up): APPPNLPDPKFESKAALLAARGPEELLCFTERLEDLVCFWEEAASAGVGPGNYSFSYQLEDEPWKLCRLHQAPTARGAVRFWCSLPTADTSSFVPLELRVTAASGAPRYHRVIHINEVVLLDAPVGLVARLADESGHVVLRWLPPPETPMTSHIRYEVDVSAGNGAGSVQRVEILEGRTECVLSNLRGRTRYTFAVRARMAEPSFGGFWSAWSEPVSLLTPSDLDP

[3] = biological target: T2, human EPO-R on cells (BaF3/Gal4/Elk/EPOR cells; human bone marrow derived CD34+ cells) (human, UniProt P19235 25-508); assay: cell-based or functional assay
T2 sequence (looked up): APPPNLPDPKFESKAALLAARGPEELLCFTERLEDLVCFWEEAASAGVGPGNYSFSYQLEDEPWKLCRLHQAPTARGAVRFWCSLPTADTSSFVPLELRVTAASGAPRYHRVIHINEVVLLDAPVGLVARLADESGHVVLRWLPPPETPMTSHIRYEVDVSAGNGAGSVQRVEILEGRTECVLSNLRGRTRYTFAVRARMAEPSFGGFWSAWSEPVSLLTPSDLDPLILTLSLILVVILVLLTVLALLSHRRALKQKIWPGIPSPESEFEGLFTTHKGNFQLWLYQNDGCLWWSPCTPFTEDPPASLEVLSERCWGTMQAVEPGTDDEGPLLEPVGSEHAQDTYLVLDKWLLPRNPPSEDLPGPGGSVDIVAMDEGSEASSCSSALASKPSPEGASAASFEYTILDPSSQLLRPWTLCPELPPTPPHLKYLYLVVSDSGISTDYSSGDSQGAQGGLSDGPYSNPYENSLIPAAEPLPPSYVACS

[4] = biological target: T3, chimeric receptor comprising the extra-cellular portion of the human EPO receptor to the intra-cellular … (human, UniProt P19235 25-250; Q99062 651-836, limits assumed); assay: cell-based or functional assay
T3 sequence (looked up): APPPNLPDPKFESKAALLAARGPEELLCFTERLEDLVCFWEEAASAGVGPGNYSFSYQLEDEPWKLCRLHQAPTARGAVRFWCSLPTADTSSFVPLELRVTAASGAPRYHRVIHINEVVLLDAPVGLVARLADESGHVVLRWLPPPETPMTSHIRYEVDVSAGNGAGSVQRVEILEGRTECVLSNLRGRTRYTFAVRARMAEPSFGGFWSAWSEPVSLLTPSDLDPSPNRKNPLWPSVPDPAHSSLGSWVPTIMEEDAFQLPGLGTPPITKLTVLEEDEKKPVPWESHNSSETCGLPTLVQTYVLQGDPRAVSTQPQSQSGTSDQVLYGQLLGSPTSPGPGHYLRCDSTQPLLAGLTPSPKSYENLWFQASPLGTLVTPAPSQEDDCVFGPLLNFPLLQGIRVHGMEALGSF

[5] = biological target: T4, Recombinant Human EPO R/Fc Chimera (R&D Systems, catalog number 963-ER) (human, UniProt P19235 25-250); assay: radioligand competition: displacement of 125I-EPO from recombinant human EPO R/Fc, Protein-G Sepharose pull-down
T4 construct: extracellular domain; Bought reagent; also called recombinant EPOr extracellular domain fused to the Fc portion of human IgG1; recombinant erythropoietin receptor; not shown: Fc portion of human IgG1
T4 sequence (looked up): T1 sequence (looked up)

[6] = biological target: T2, human EPO-R on cells …; assay: cell-based or functional assay; remark: listed apart in the source
[7] = biological target: T3, chimeric receptor comprising the …; assay: cell-based or functional assay; remark: listed apart in the source

Molecule: PEGylated peptide dimer of (AcG)GLYACHMGPIT(1-nal)VCQPLR(MeG) (SEQ ID NO: 3), EPO-R agonist [Peptide II] (Ac-GGLYACHMGPIT[1Nal]VCQPLR[Sar]; disulfide 6-15 (inferred); also: homodimer, C-termini joined to a lysine linker, PEGylated)
EC90 [1]: 2.2 nM

Molecule: Peptide IV: PEGylated peptide dimer of (AcG)GLYACHMGPIT(1-nal)VCQPLRK (SEQ ID NO: 1), EPO-R agonist (Ac-GGLYACHMGPIT[1Nal]VCQPLRK; disulfide 6-15 (inferred); also: PEGylated peptide dimer)
EC90 [1]: 6.2 nM

B1: Peptide II (SEQ ID NO: 3) (peptide)
peptide: Ac-GGLYACHMGPIT[1Nal]VCQPLR[Sar]
modifications: disulfide 6-15 (inferred); also: C-termini joined to α- and ε-amines of a Lys linker carrying spacer and PEG
IC50 [2]: 0.11 nM

B2: Peptide I (SEQ ID NO: 2) (peptide)
peptide: Ac-GGLYACHMGPIT[1Nal]VCQPLR[Sar]K
modifications: disulfide 6-15 (inferred); also: K21 ε-amine joined to branched tertiary amide linker bearing PEG
Proliferation EC50 (pM) [3]: 165 pM | Reporter EC50 (pM) [4]: 195 pM | IC50 [5]: 0.111 nM

Further lines, results first:

EC90 [1]: 2.7 nM
Molecule: PEGylated peptide dimer of (AcG)GLYACHMGPIT(1-nal)VCQPLR(MeG) (SEQ ID NO: 3), EPO-R agonist [Peptide III] (Ac-GGLYACHMGPIT[1Nal]VCQPLR[Sar]; disulfide 6-15 (inferred); also: homodimer, C-termini joined to a lysine linker, PEGylated)

Proliferation EC50 [6]: 72 nM | Reporter EC50 (pM) [7]: 150 pM
B3: Peptide III (SEQ ID NO: 3) (peptide)
peptide: Ac-GGLYACHMGPIT[1Nal]VCQPLR[Sar]
modifications: disulfide 6-15 (inferred); also: C-termini joined to α- and ε-amines of a Lys linker carrying spacer and PEG
